These results are taken from patent publication US20190248902A1 (published 2019).

Assay [1] concerns the target T1, soluble human ASGR-1 carbohydrate binding domain (CBD; amino acid residues 154-281; N-terminal 6xHis tag) (human, UniProt P07306 154-281).
T1 construct: also called ASGR-1 CBD
T1 sequence: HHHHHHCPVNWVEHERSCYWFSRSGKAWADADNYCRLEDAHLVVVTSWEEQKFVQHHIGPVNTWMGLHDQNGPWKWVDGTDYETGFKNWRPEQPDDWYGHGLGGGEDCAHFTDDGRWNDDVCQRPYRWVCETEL
The assay can be described thus: Octet BLI, mAb on AR2G tips, 1:1 fit.

The target of assay [2] is T2, human ASGR-1 (wild type) (human, UniProt P07306 1-291).
T2 construct: also called wt ASGR1; huASGR-1
T2 sequence: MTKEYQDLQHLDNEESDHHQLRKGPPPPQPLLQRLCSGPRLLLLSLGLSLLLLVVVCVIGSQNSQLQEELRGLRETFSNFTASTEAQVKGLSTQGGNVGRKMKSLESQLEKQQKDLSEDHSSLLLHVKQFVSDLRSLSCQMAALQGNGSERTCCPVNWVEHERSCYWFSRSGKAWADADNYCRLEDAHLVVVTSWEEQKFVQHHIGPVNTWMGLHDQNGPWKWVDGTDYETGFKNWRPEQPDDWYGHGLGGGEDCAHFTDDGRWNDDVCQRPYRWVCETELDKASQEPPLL
Briefly: flow cytometry, CHO-S:huASGR-1 cells, 11-point titration. An outline of the steps: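 CHO-S cells stably expressing human ASGR-1 were multiplexed with dye-labelled parental cells and mouse ASGR-1 cells (30K cells/well). Antibodies were run as an 11-point 1:2 series from 100 nM for 30 min at 4°C, with CaCl2 (1 mM) washes, anti-human IgG-APC detection and PI live gating. EC50 from four-parameter fits of duplicate median signals.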

Assay [3] concerns the target T2, human ASGR-1 (wild type). Briefly: FACS, transfected CHO-S cells, mAb 5 ug/ml. The essentials:
(§1)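 Transiently transfected CHO-S cells expressing wild-type or mutant hASGR-1 incubated with antibody at 5 ug/ml, 1 h at 4 °C; bound antibody detected by Alexa Fluor 647 anti-Fc plus 7-AAD, by flow cytometry. Binding normalized to expression using an unaffected antibody (65C12), then to wild type; hits defined as >3× IQR above third quartile.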

Assay [4] has as its target T3, human ASGR-1 mutant construct H203 (human, UniProt P07306 1-291).
T3 construct: Arg/Glu scanning: non-arginine residues were changed to arginine; Transiently expressed on CHO-S cells
T3 sequence: T2 sequence with H203R
The assay can be described thus: FACS, transfected CHO-S cells, mAb 5 ug/ml. An outline of the steps: as §1
On the technique in general: In flow cytometry, cells or beads pass a laser one at a time.

As a reminder, the Kd is a measure of binding affinity in units of concentration. A lower Kd goes with tighter binding. As a reminder, the EC50 is the concentration needed to bring the measured effect to its halfway point.

Numbering of substitutions follows the chain as printed.

B1: 75G3 (antibody, V domains shown)
VH: QVQLQQWGAGLLKPSETLSLTCAVYGGSLSGSYWSWIRQPPGKGLEWIGEINLSGSTNYNPSLKSRVTISVDTSKSQFSLTLRSVTAADTAVYYCARDYGGLDYWGQGTLVTVSS
VL: EIVLTQSPGTLSLSPGERATLSCRARQNVDSSYLAWYQQKPGQAPRLLIYGASSRATGIPDRFSGSGSGTDFTLTISRLEPEDFAVFYCQQYERSPWTFGQGTKVEIK
notes: mAb
As to B1, in assay [1], the Kd came to 1 nM. In the assay with human ASGR-1 (wild type) [2], this molecule displayed an EC50 of 1 nM. Also, the “FACS Binding Geomean” value in the assay with human ASGR-1 (wild type) [3] turned out to be 37200; in assay [4], 14500.

B2: 194C10 (antibody, V domains shown)
VH: QVQLQQWGAGLLKPSETLSLTCAVSGGSFRYYYWSWIRQPPGKGLEWFGEINHSGSTNYNPSLKSRVTISIDTSKNQFSLKLRSVTAADTAVYYCARDYGAFDIWGQGTMVTVSS
VL: EIVLTQSPGTLSLSPGERATLSCRASPSVNSGYLAWYQQKPGQTPRLLIFGASSRATGIPDRFSASGSGADFTLTISRLEPEDFAVYFCQQYESSPWTFGQGTKVEIK
notes: mAb
Consider B2, for which the Kd in assay [1] stood at 4 nM. For the same molecule, the EC50 in the assay with human ASGR-1 (wild type) [2] is 0.56 nM. The entries for the “FACS Binding Geomean” value (in the assay with human ASGR-1 (wild type) [3]; in assay [4]) were 28100 and 13200, respectively.

B3: 176H4 (antibody, V domains shown)
VH: QVQLVESGGGVVQPGRSLRLSCAASGFTFSSYGMHWVRQAPGKGLEWVAIIWYDGSYKYYADSVKGRFTISRDNSKNTLYLQMSSLRAEDTAVYYCARDAHDFWSGYFAYWGQGALVTVSS
VL: DIVMTQTPLSLSVTPGQPASISCKSSQSLLHGDGKTYLYWYLQKPGQPPQLLIYEVSNRFSGVPDRFSGSGSGTDFTLKISRVEAEDVGIYYCMQSIQIPWTFGQGTRVEIK
notes: mAb
In assay [1], B3 registered a Kd of 0.8 nM. The molecule also returned an EC50 in the assay with human ASGR-1 (wild type) [2] of 1 nM. Besides, the results for the “FACS Binding Geomean” value (in the assay with human ASGR-1 (wild type) [3]; in assay [4]) were 33500 and 10200, respectively.

B4: 193E7 (antibody, V domains shown)
VH: QVQLQQWGAGLLKPSETLSLTCAVYGGSFSGYFWTWIRQPPGKGLEWIGEINHSGSTNYNPSLKSRVTISVDTSKNQFSLKLSSVTAADTAVYYCARDYGADYWGQGTLVAVSA
VL: DIQMTQSPSSLSASVGDRVTITCRASQGIRNDLGWYQQKPGKAPKRLIYSASSLQRGVPSRFSGSGSGTEFTLTISSLQPEDFATYYCLQHKRYPLTFGGGTKVEIK
notes: mAb
As for B4, in assay [1], the Kd was found to be 3.5 nM. In the assay with human ASGR-1 (wild type) [2], this molecule gave an EC50 of 0.13 nM. For the same molecule, the “FACS Binding Geomean” value came to 35500 with human ASGR-1 (wild type) [3] and 13800 in assay [4].

B5: 197G3 (antibody, V domains shown)
VH: QVQLVESGGGVVQPGRSLRLSCVASGFTFSSHGMHWVRQAPGKGLEWVAVIWYDGSNKNYADSVKGRFTISRDNSKNTLYLQMNSLRAEDTAVYYCARDPSVGYDGMDVWGQGTTVTVSS
VL: DIQMTQSPSSLSASVGDRVTITCRASQGIGNHLAWFQQKPGKAPKSLIYAASSLQSGVPSKFSGSRSGTDFSLTISSLQPEDFATYYCQQYSNYPVTFGPGTKVDIK
notes: mAb
In the case of B5, the Kd in assay [1] came out at 0.8 nM. This molecule gave an EC50 with human ASGR-1 (wild type) [2] of 0.25 nM. The “FACS Binding Geomean” value with human ASGR-1 (wild type) [3] amounted to 13300; in assay [4], 3500.

B6: 218G4 (antibody, V domains shown)
VH: QVQLVESGGGVVQPGRSLRLSCAASGFTFSSYGLHWVRQAPGKGLEWVAVIWYDGSNKYYADSVKGRFTISRDNSKNTLYLQMNSLRVEDTAVYYCANWYYYYYGMDVWGQGTTVTVSS
VL: QSVLTQPPSVSAAPGQKVTISCSGSSSNIGNNYVSWYQQLPGTAPKLLLYDSNKRPSGIPARFSGSKSGTSATLGITGLQTGDEADYYCGTWDSSLNTVVFGGGTKLTVL
notes: mAb
Consider B6, for which binding in assay [1] was characterised by a dissociation constant (Kd) of 2.6 nM. Besides, a half-maximal effect with human ASGR-1 (wild type) [2] (EC50) was put at 2.2 nM. In addition, the “FACS Binding Geomean” value is 12200 with human ASGR-1 (wild type) [3] and 7930 in assay [4].
